# Measured values as given in patent US20240368668A1, “SUBSTRATES AND BIOMARKERS OF ADAMTS7” (The Broad Institute, Inc., priority 2021, published 2024).
# Square brackets hold non-standard residues; d marks the D form. Ends that are not written are not given here.
# Target: T1, mouse ADAMTS7 (Mus musculus, UniProt Q68SA9, E373Q)
# T1 construct: Full-length mouse Adamts7 1-1857 (Uniprot Q68SA9, WT or E373Q catalytic mutant); expressed in transfected cells; host or cells: Human Coronary Artery Smooth Muscle Cells (HCA-SMC, Lonza), adenovirus 50 MOI
# T1 sequence (Q68SA9 221-1657 E373Q): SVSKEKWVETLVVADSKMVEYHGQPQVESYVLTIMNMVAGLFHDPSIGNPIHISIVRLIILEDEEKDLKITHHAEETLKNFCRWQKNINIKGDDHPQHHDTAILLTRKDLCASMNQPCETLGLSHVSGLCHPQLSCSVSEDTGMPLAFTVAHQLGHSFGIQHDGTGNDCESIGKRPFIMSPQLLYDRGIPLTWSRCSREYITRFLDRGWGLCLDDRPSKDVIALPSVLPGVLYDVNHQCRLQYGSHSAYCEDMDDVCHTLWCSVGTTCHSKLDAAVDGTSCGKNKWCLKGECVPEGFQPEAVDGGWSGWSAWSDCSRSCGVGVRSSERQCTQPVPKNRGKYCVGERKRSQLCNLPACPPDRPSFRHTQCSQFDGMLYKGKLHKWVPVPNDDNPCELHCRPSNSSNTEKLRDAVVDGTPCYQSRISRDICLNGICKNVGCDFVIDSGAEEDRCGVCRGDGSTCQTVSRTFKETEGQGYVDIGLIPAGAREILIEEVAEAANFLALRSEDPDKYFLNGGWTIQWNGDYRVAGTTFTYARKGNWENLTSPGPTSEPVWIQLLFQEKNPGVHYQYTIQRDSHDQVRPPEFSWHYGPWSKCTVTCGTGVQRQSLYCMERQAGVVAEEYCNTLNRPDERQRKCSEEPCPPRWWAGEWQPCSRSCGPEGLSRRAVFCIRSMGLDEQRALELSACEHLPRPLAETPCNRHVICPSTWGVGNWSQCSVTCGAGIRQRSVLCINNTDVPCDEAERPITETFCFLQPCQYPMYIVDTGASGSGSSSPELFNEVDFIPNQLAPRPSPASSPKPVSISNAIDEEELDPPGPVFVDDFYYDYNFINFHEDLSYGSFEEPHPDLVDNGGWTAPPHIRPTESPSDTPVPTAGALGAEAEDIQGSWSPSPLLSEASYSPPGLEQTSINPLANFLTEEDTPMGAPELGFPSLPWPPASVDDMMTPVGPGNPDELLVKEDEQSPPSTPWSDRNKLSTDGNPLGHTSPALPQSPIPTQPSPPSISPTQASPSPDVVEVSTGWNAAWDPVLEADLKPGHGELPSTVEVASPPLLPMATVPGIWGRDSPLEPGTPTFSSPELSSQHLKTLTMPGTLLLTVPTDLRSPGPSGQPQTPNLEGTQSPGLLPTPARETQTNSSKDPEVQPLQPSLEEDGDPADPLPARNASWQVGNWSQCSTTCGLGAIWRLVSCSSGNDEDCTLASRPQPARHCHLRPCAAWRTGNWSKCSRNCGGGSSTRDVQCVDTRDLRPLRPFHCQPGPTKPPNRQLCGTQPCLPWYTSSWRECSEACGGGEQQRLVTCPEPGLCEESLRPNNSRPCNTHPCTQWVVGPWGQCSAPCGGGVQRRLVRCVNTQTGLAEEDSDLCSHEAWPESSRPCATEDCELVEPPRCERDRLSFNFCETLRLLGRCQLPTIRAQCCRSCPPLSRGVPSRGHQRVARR
# Test: TMT10 TAILS N-terminomics, SMC2 experiment (process replicates, trypsin/AspN digest)
# Format: cell-based
# Conditions: SMC2_TAILS HC
# Description: ADAMTS7 Expression, Cell Culture and Preparation of the Secreted Proteins—Full-length mouse Adamts7 1-1857 (Uniprot Q68SA9, WT or E373Q catalytic mutant) with a carboxyl terminal 3xFLAG tag was used to generate custom adenoviruses as previously described. Adeno-CMV-Luciferase (Ad-Luc) from Vector Biolabs was used as a negative control. Human Coronary Artery Smooth Muscle Cells (HCA-SMC) were obtained from Lonza and expanded in Lonza SmGM-2 media in 15 cm tissue culture plates. Twenty-four hours before media collection, near confluent plates were transduced with 50 MOI adenovirus and switched to Lonza Basal SM media with volumes of 20 ml per 15 cm plate. Expression of the Flag tagged ADAMTS7 was confirmed from the media using western blot and detected using the anti-Flag M2-HRP antibody (Sigma, A8592). Collected media was processed by adding protease inhibitors (1 mM EDTA and 1 mM PMSF) and clarified by 500 g×5 min spin at 4 C to pellet cell debris. Cell media supernatants were then passed through a 0.22 um filter and kept chilled. Processed media was then concentrated 50-100× using 3 kDa Centricon Plus-70 filter unit, spun at 3,500 g×60 min at 4 C. Approximately 10% of the processed, concentrated media was set aside for total secretome proteolytic analysis. The remaining 90% of the processed, concentrated media was buffer exchanged into 50 mM HEPES pH 8.0, 150 mM NaCl (2×50 ml) using the 3 kDa Centricon Plus-70 filter unit and concentrated to >2 mg/ml to serve as input for the TAILS experiment. Secretome and TAILS input samples were stored at −80° C.
# For the first experiment, referred to as SMC1, 120 ml of media from 6×15 cm dishes was pooled from each condition (Luc, WT, EQ) and processed to produce three separate inputs for the TAILS experiment. Luc, WT and EQ inputs from the SMC1 experiment were each divided into triplicate 400 ug samples to generate technical replicate TAILS data. For the second experiment, referred to as SMC2, media was processed separately in triplicate for each condition (Luc1, Luc2, Luc3, WT1, WT2, WT3, EQ1, EQ2, EQ3) using 60 ml of media from 3×15 cm dishes for each process replicate. Inputs from the SMC2 experiment used process replicates of 300 ug each to generate TAILS data. The third experiment used input from cultured Human umbilical vein endothelial cells (HUVEC) from Lifeline Cell Technology grown in VascuLife Media and transduced in Lifeline Basal EC (+bFGF2 10 ng/ml). The HUVEC experiment used the same strategy as the SMC2 experiment, with 40 ml of media from 2×15 cm dishes for each process replicate and used 200 ug each to generate TAILS data. Inputs for process replicate experiments were restricted to the lowest concentration from the 9 parallel samples for SMC2 or HUVEC.
# TMT10 isotopic labeling and negative selection of non-labeled peptides-Sample preparation was performed based on the TAILS protocol from the Overall lab with some modifications. From a single experiment, nine parallel protein samples in 50 mM HEPES pH 8.0, 150 mM NaCl were separately denatured with guanidinium chloride (Sigma, G4505) to reach a final concentration of 2.5M guanidinium chloride and 250 mM HEPES and incubated at 65° C. for 15 min. Reduction was achieved through addition of tris(2-carboxylethyl) phosphine (TCEP) at a final concentration of […] and incubated at 65° C. for 45 min. Alkylation reaction was performed with addition of iodoacetamide (IAA, Sigma, A3221) to a final concentration of 10 mM IAA for 15 min at room temperature in the dark. Following denaturation, reduction and alkylation steps, ten percent of each of the nine parallel protein samples was removed and combined to serve as a pooled reference. Isobaric tags were added to free amine groups using the TMT10plex Isobaric Mass Tagging Kit (ThermoFisher, 90113) with TMT channels randomly assigned to the nine samples and TMT 131 assigned to the pooled reference. […]
# [1] = log fold change of N-terminal peptide, Ad-mADAMTS7 EQ over Luc
Substance,"logFC.mEQ.over.Luc (log fold change, mEQ over Luc)",logFC.mEQ.over.Luc [1]
AEBP1_37 (FLEGFLSELEPEPR; listed as Homo sapiens),−0.27,–
EFEMP1_124 (AVAGPEMQTGR; listed as Homo sapiens),−0.46,–
EFEMP1_125 (VAGPEMQTGR; listed as Homo sapiens),−0.99,–
FBLN2_260 (LGPPAPVQAKAR; listed as Homo sapiens),−0.44,–
FBN1_29 (LEAGNVKETR; listed as Homo sapiens),−0.24,–
FN1_1143 (LTPGVEYVYTIQVLR; listed as Homo sapiens),−0.49,–
HSPG2_275 (LLPGSVR; listed as Homo sapiens),−0.36,–
HSPG2_2331 (ANLAYPAGSTQPIR; listed as Homo sapiens),−0.19,–
IGFBP3_32 (AGLGPVVR; listed as Homo sapiens),−0.51,–
IGFBP7_101 (AAGGPGVSGVCVCKSR; listed as Homo sapiens),−0.04,–
LOXL2_37 (FQQPAPEYHQPQAPANVAKIQLR; listed as Homo sapiens),–,−0.03
LOXL2_38 ([code q]QPAPEYHQPQAPANVAKIQLR; not fully specified; listed as Homo sapiens),–,0.06
LOX_58 (LSLGSQYQPQR; listed as Homo sapiens),−0.08,–
LOX_123 (HWFQAGYSTSR; listed as Homo sapiens),0.00,–
LOX_126 (QAGYSTSR; listed as Homo sapiens),−0.26,–

# Other lines, results leading:
"logFC.mEQ.over.Luc (log fold change, mEQ over Luc)",logFC.mEQ.over.Luc [1],Substance
−0.13,–,CCDC80_66 (LEEPNLQPLQR; listed as Homo sapiens)
−0.27,–,FBLN2_259 (ALGPPAPVQAKAR; listed as Homo sapiens)
−0.25,–,FBN1_53 (LKGPNVCGSR; listed as Homo sapiens)
−1.35,–,FLNA_1285 (LTQTGGPHVKAR; listed as Homo sapiens)
−0.11,–,FN1_36 (MVQPQSPVAVSQSKPGCYDNGKHYQINQQWER; listed as Homo sapiens)
−0.06,–,FN1_40 (QSPVAVSQSKPGCYDNGKHYQINQQWER; listed as Homo sapiens)
−0.65,–,FN1_1656 (SSSPVTGYR; listed as Homo sapiens)
0.18,–,GSN_413 (HIANVER; listed as Homo sapiens)
−0.22,–,HSPG2_2333 (LAYPAGSTQPIR; listed as Homo sapiens)
−0.31,–,IGFBP3_31 (SAGLGPVVR; listed as Homo sapiens)
–,0.09,LOXL1_219 (VASAGVIYPYQPR; listed as Homo sapiens)
−0.11,–,LOX_124 (WFQAGYSTSR; listed as Homo sapiens)
–,0.29,LTBP1_393 (LTATNFR; listed as Homo sapiens)
–,0.05,LTBP1_540 (HQQVIPHVYPVAAKTQLGR; listed as Homo sapiens)
